Test results reported in patent publication US7838288B2, “Modulators of odorant receptors” (Duke University, priority 2004, dated 2010).

Columns and labels:
[1] = target: T1, mouse odorant receptor OREG (Mus musculus, UniProt Q920P2); assay: CRE-luciferase reporter gene assay, OREG; format: cell-based; conditions: 293T cells; compared to OR alone or control pCI
T1 construct: expressed in transfected cells; host or cells: 293T cells (with or without co-transfected REEP1/RTP1/RTP2) and Hana3A cells (293T stably expressing mouse REEP1, RTP1, RTP2, Galpha-olf)
T1 sequence (Q920P2 1-313): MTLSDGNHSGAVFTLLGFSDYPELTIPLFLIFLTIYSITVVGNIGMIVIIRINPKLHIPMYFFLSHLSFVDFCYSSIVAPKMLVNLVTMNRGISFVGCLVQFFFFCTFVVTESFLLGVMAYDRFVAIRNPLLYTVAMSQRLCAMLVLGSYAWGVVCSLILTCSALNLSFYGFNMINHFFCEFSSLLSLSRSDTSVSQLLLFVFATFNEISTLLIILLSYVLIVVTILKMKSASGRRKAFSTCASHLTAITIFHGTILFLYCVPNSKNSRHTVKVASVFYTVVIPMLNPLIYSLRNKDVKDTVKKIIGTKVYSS
How it was run: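 293T-derived cells stably expressing REEP1, RTP1, RTP2 and Gαolf, transfected with OREG, CRE-luciferase and SV40-Renilla control. Odorant applied in CD293 medium for 10 h or 4 h at 37 degrees C. Output is firefly luminescence minus no-odorant value, normalized to Renilla.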

MOR23-1 = assay: CRE-luciferase reporter gene assay, MOR23-1; format: cell-based, mouse; conditions: 293T cells expressing RTP1 variant
Description: Four ORs (S6/79, S18, S46 and S50) previously assayed using other techniques (see, e.g., Malnic, B., et al. (1999) Cell 96, 713-723; herein incorporated by reference in its entirety) were tested against an assay panel of aliphatic alcohols, aldehydes and acids and some other odorants. Additionally, five “orphan” class I ORs (MOR23-1, MOR31-4, MOR31-6, MOR32-5 and MOR32-11) whose cognate ligands were unknown were tested. At a suprathreshold concentration of 100 uM, all these ORs were odorant selective, responding to only a small subset of the odorants tested (see FIG. 11A). This specificity was retained at lower, more physiologically relevant concentrations. Many of these ORs responded to odorants present in micromolar concentrations. The cell-surface expression of these ORs by living-cell immunofluorescence were evaluated. Some ORs (S18, MOR31-4, MOR31-6 and MOR32-5) were strongly expressed while other ORs (S6, S50, MOR23-1, MOR32-11) were weakly expressed (see FIG. 12). […]
Dual-Glo system (Promega) for luciferase assay was used. […] Luminescence was measured using Wallac Victor 1420 (Perkin-Elmer). Normalized luciferase activity was calculated as [Luc (N)-Luc (0)]/RL (N), where Luc (N)=Luminescent count of a certain well, Luc (0)=Luminescent count without odorant for each OR, and RL (N)=Luminescent count of Renilla Luciferase of each well. […]

23-1 = assay: Living-cell staining of cell-surface 23-1; format: cell-based, mouse; conditions: accessory protein co-transfected in 293T cells
Description: 293T cells were maintained in minimal essential medium containing 10% fetal bovine serum (M10). Lipofectamine 2000 (Invitrogen) was used for transfection. In live-cell staining, 16 hours after transfection, cells were incubated in M10 containing anti rhodopsin antibody, 4D2 (see, e.g., Laird, D. W., and Molday, R. S. (1988) Invest Opthalmol V is Sci 29, 419-428; herein incorporated by reference in its entirety) and 15 mM NaN3 at 4 degrees C. for 1 hour. After washing, cells were incubated with Cy3-conjugated anti mouse IgG (Jackson Immunologicals), washed and mounted. For FACS analysis, 4D2 and PE-conjugated anti mouse IgG (Jackson Immunologicals) were used to monitor the Rho tagged receptor expression. Anti HA rabbit antibodies (Sigma) and Alexa 488 conjugated anti rabbit IgG (Molecular Probes) was used to stain the HA-β2 adrenergic receptor. To establish the Hana3a cells, 1 ug/ml of puromycin was used for selection. 96 colonies were picked and assayed using luciferase assay using OREG.

B1: RTP1-A1: RTP1 variant from deleting portions of RTP1-A; murine SEQ ID NO: 46, human SEQ ID NO: 47 (protein, listed as Mus musculus)
chain: MCKSVTTGEWKKVFYEKMEEVKPADSWDFIIDPNLKHNVLAPGWKQYLELHASGRFHCSWCWHTWQSPHVVILFHMYLDKAQRAGSVRMRVFKQLCYECGTARLDESSMLEENIESLVDNLITSLREQCYGERGGHYRIHVASRQDNRRHRGEFCEACQEGIVHWKPSEKLLEEEATTYTFSRAPSPTKPQAETGSGCNFCSIPWCLFWATVLMLIIYLQFSFRTSV
OREG activity by luciferase, accessory protein co-expressed [1]: Increased enhancement | 23-1 activity as indicated by luciferase expression (MOR23-1): Increased enhancement | cell-surface expression of 23-1 (23-1): Increased cell-surface staining
